Results on 19 sequences are retold here after the DeepSol protein solubility set.

The nature of the data set: soluble on expression in E. coli; label from the status in PepcDB or PDB records.
Turning to “MGSDKIHHHHHHMRRLNRKNNEALKKLNDRQRKVLYCIVREYIENKKPVSSQRVLEVSNIEFSSATIRNDMKKLEYLGYIYQPHTSAGRIPTDKGLRFYYEEMLKISKETSEADLAVETFKSMPLADPEKVLFLAGNLLARLTEGYVLIERPNTRDLKILRVMLIPVSEDYLIFSILTEFGVSKVTPIKTQERLNWEEIERQLNFLLRGRTVGEVLMGKIESLKGSGFLRLIESLIGETVERYLDAGLENLLKDETLTLEDIRNLLEEVKDQKFLESLVGEGITVRIGREIGRKKLEKFAVFSGKYFKGESPIGSVYLFTSKVTKYDRNHRVFEYILNRLSEYFTSTSRR”, the “soluble on expression in E. coli” value was “not soluble”.

On to “MGSDKIHHHHHHMRRLPHVTWLRSFEAAARHSSFSAAAEELHLTPAAVSQQIRQLEHHLGFQLFKRLPKGVELTDIGQAYAIPVRKSFVQMQEATDGLFRVQSKSVLRVRCSISFAALILAPLLRDFAEIHPDIDVELSTAVWSDRMEGAGVDLDIRYGAACWPEQNVHPLPVEEATLVCHPDYAAQLGSALDPAWLGAADIVQIVGSETDWDRYLRLCGIDTPRPRHWMKADSSLIALQILSAGRGCALISRSFARQALSEGRLVAPFDLSLPMQESFVLVERDDLRENPGLRKLVDWLLTQRL”, for which the “soluble on expression in E. coli” value is given as “not soluble”.

Consider “MGSDKIHHHHHHMRRVNRPAPLSERQYEYMQRCINSWFNVAEGGKRGGKNVLQTLIFCSLLETHKNKIHLVAGVSSATAKLNILDCDGYGLLNYFEGRCREGKYKDRDCVYVQTKTGEKIVLVSGGGKDGDEKLIKGNTYGMAYVTEANECHQKFLKEVFDRTLSSTDRKIFHDLNPKEEEHWYYTEILKFHEEQQANDENYGYNYGHFTLVDNMSMSDEKIRTVLKTYQKGTVWYKRDIKGERAVAEGIIFRKFKENNIPYLCDDSILKYNKDGELFPRPSKVIIGMDFGGNGSMTTMVCSLYFRGYHFIYPVEEDYLELSPDIDANNICDKYIEFYRRCAAKYERIDWTFPDSASTTMINSLRSAAKKDGLRYDHIAGCRKNEISERPRTVDLLLNTGRMKVHKRCVNLRKAIGTLKWDEKHPNIPEDKNIGNCNDWWDALCYTMLDFIEYIDLDR”, for which the “soluble on expression in E. coli” value is “not soluble”.

“MGSDKIHHHHHHMRSLTNAEIAHNRLLNSGLLQSKFSSAEDATRALFGIQSQYQQFGEISLFNRVPNLTKENLQMAYDDKGIIKIWGQRMTIHMYTPDDWFYVHDVYANKNNWLRKHADSLGRDLDEILVQMEELLLREDKVSKESFAALLGNEAKELMTWGGVFIQGSLDGKLFCVPESPKTKFYSHRNQIDSEREDAWITNKRSKTGLETMIDRYFSAFGPATIQDFKHWSGLRNSDYIETLEKLLENYICYIGEDGKNYYSKAKTQENVEMGSPLLLGKFDPLFVSYAKKNWLASEKETSLIWRTAGQIEAVLIINAQFFGTWRYKISGDKIVFQFYLSKKLTKKGQKLVEKEAIKLAEFLLKNYQGSIFEQI”: the “soluble on expression in E. coli” value is listed as “not soluble”.

As to “MGSDKIHHHHHHMRTKIGIYLSSEPESGGMFQYGLSILDAAASLPRDRYQTTVAFISERWNEHLKFRNLEHFQISPNFLWRIFKGKGWLLLNLPISFWRWILINLNPFFYKRLIQEGCDLWLFPSQDTWTYLLRLNSLGVVHDLMHRYEKKFSEVAAPFEYRRRERHYRAMCEYSKGILVDSNYGKRQVLESYDAKPDFIHVLPYVPPEYINIKNAPIDFDSRYNLPRKFLFYPAQFWEHKNHHNLLAALAHLKRELRDIHVVLVGSKKNAYKKTLGYINSMNLSDHVIILGYVPNEDMAEFYRRARALVFPSFFGPTNIPPLEACAAGCPLAVSNIYGMPEQLGDAALFFNPHSVEEIHLAMKRLWIDDALCRQLSMNGKKWAKAWNQNSFNRQFQVIIEEVLKNPNT”, the “soluble on expression in E. coli” value was “not soluble”.

With “MGSDKIHHHHHHMRVTADEGLYGEEATQGTEFRFHCETLFSRSSLHRFEIGLHRHSAFLQILYIFGGEGDALLEGRIEPIRPPVAIIVPPGFEHGFRFSRDIGGVIVTMLPGALPASVQALLLRNFQQPVLLRLRDFAEKDGLRSGFERISAEYEAREIGRDAMIEGQLATVVTLLSRAARPLLETSGEGLAEQRFERLLSLIARHIREPQKAGFYAGKLGLSETHLNRLVRSVSGLSLQRLIAKRQIEIAQQELIFTVSSVQMIAEGLGFADPAYFNRFFKRETGMTPRAWRLAEQRKMGDTGARLTPPQTSILASSR”, the “soluble on expression in E. coli” value is given as “not soluble”.

As for “MGSDKIHHHHHHMRVYIGCGGYTDEDWTAPGLIYEGVKKDAFLETYAHHFDAVELNSSFYAIPGLKAFEGMVRKSGGWVRFAVKLNKVFTHVRAPTDTDFDRMLQSPEPLREAGMMGPYLAQFPYSFHRTAANRKYLALLTERFAGHELAVELRHASWDKPEVREGMGEFGIIWVSPDYPPVGGMPEPQVHVTGDVGYLRLHGRNRETWWEGQSAGERHDYLYNRAEMDEWAEKIAAVAGDLSELYVFFQNTTGGHALKNIPMLREALNARGVPVQTPEAHDGGRLL”, the “soluble on expression in E. coli” value is recorded as “not soluble”.

In the case of “MGSDKIHHHHHHMSAHEMNHATPRLPAPLFVTGTDTGVGKTVVSLLLMRALFRRGMVPFYAKPMQTGCRDPYDTDSDAAFVYRHVPELAERDPAEAVGWCFRAPKAPLHAARDERNGVETEDLMRRLAILRATHACLVLEGAGGLMVPFTADALCVDCIRAADARPVLVARDGLGTVNHTLLSVEAMTRRGVTPAGIVFVASGKRPTPSDLVHDNMEAVAMLSGISVSGIVPPILDFHAPPEAALTVADAVIDAALGL”, the “soluble on expression in E. coli” value was “not soluble”.

As for “MGSDKIHHHHHHMSAIERITKAAHLIDMNDIIREGNPTLRTVAEEVTFPLSDQEIILGEKMMQFLKHSQDPVMAEKMGLRGGVGLAAPQLDISKRIIAVLVPNIVEEGETPQEAYDLEAIMYNPKIVSHSVQDAALGEGEGCLSVDRNVPGYVVRHARVTVDYFDKDGEKHRIKLKGYNSIVVQHEIDHINGIMFYDRINEKDPFAVKDGLLILE”, the “soluble on expression in E. coli” value is on record as “soluble”.

In the case of “MGSDKIHHHHHHMSCSTAVKENTTQPDIMETNKKNLGNLLALYPKPMTVVGAEVEGKVNWLVVGHTGVIGHDRILVSMSKSHYTNQGIKKSKRLSVNLVSREMLPKADYVGSVSGATVDKSEVFAYHIGENDTPVIDASPLTMECEVVDIYETDGFDNFICAIVNTYAASDVLDSDGKLDYTKLKPVLFEFPTYSYLATGEIIGKCLNPDKPGMCVKEPMTTDGIVRLSKIEVYPQYLDEYMNYATEVGEISLRTEPGVLTMYAVGEKENPCKVTILETYASREAYEQHIASEHFQKYKQGTLHMVKSLVLSDQTPLNPANKLNNFMQ”, the “soluble on expression in E. coli” value is given as “not soluble”.

For the sequence “MGSDKIHHHHHHMSDKKYNVDEGEIAKFSRIADKWWDKSGEFKTLHDINPLRLDYIDGHADLCGKRVLDVGCGGGILAESMARRGAAFVKGIDMAEQSLETARLHAALNNVADIEYECIRVEDLAEAEPHSFDVVTCMEMMEHVPDPAAIVRACAKLVKPDGMVFFSTINKNPKSYLHLIVAAEYLLKFVPKGTHDWKKFIVPAELARMCRQAGLDVADTKGMTYHVLSQTYALCDSTDVNYMFACRPAF”, the “soluble on expression in E. coli” value is given as “not soluble”.

On to “MGSDKIHHHHHHMSDPTWDGSPQYRNELLRFMPADDLALLAPHMQRCALPVRMMLVTPNIPIEAVYFIEQGIGSVVASTASGHDAEIGFIGFEGMTGSALVMGDDRAAHACFVQLEGEAIRIDAAPFNAALAASPTLRLFLLHFVNTLHTQTGCTALVNARLKLEERLARWLLMCDDRVPGESLAMTHEFLSIMLGVRRPGVTVALQLLEGRALIRSRRGEIVIRDRAGLLELANGGYGQAEAEYARLIGEIMPG”, for which the “soluble on expression in E. coli” value is recorded as “not soluble”.

Turning to “MGSDKIHHHHHHMSDSEKSNSRLFDLDLLRAIVTVADCGSFTTAAARLHSTQSTVSQKVRRLEEMAGHRLLERGNRDVLPTDAGDTLLGYARRLLALNDELAEALSGATVALTVRIGVPDDFAAGRTTERLAAFNRRYPQVKLEVTSGMSRDLSASYDRGELDLVLLKQRRASREALACWPEKTCWVDSARNPCIDLDPLPIVTFPPRGVYRDEMIAALEAVGRRWHISFTSSSLSGLQSAIADGMGIGLLPLRAVSAGHAVLPKNVGLPAVDVFEVALLHRPAADPMVKALARVLSRVLAEDTRSRPAFEK”, the “soluble on expression in E. coli” value is recorded as “not soluble”.

In the case of “MGSDKIHHHHHHMSEAKMAESDGLRVLIDEPFYQPVANEVRVFLAAWDRRLPVMLKGPTGCGKTRFLEHMAWRLKRPLVTVACHEDLTSSDLIGRFLIEGNETVWQDGPLTRAVREGAICYLDEIVEARTDTTVVIHPLTDHRRHLPIEKLGIEITAHRDFMLVISYNPGYQTVLKDLKPSTKQRFVGMNFNYPPADVETCIVMKEAGVDEGRAKALVAAAGKARNLKEQGLQEVTSTRALIYAGALMVAGLDALEACVVAIIHPQTDDPELAEALLEIFRTFFPEQG”, the “soluble on expression in E. coli” value was “not soluble”.

As to “MGSDKIHHHHHHMSEEIELKFIVHPDSVESLLTQLAEWESDYSQYEHMRAQRLSNIYYETADNYLRRNGIGLRIRGENERYEMTAKTAGKVIGGLHQHPEYNVALETAELDLSLFPAEIWPEDCDVKTLQPSLNPLFSTDFTREKWVFTYYQSVIEVALDRGEIRAGDLSEPLCELEMELKVGQTTHLLALAKEIAEFGGMRQGSLSKAARGYHLAKGNPVRECLPLNRLVVDSKTNIDQAIRAALELALSHWQYHEELWVRGDSSAREALPQASALMREMLVLVGGVVLRRVTTLFRSALSTLENRLQGSGGSEICYSTDYLQSKLVLTSWLVESGWRDYMDNKDRIKLQGSFKRFADIMLSRSTAELKSAFSSKLTAEQYEQQIPRLQRNLYAFLLLSGAYPADQVEAYVEHWQTLLQEIEHLAVDQAPSVYLEAYRKEVLTLPPFWLHSGGPSQ”, the “soluble on expression in E. coli” value was “not soluble”.

Regarding “MGSDKIHHHHHHMSEILVLGGGMVGISTALELQARGHAVTVVDRKAPGQETSYGNAGLIQAEAAEPYAMPRALPEILGILSGRSNDVIWSLRGVLSQLPALWQYYRYSHPHRHLALSQPNAHLIRTACADHDRWITAAAAQDLIAQDGYLSVFQDAAMFDSLASDLERLRQSYGVEATAMSGPQLCKMEPLYQRPPVGGIHWRDVWSCAAPGELVARYAALFQSRGGEICTGDASTLRPEGSAWALMSEAGRLHGEHAVIALGPWTPPILAQLGYRVRMIMKHGAHRMYPTGPKLRRPVHDAQHGIVLSSMKGGLRMTCGVALEASGRVPDARQLDRGAKGLAAYMDLGTAEGGPIWHGTRPFLPDMLPMVGAAPRHDRLWFHFGHGHQGFTLGPTTARHLGALIDGGDSAGIAALLPQNRPAVLS”, the “soluble on expression in E. coli” value is reported as “not soluble”.

For “MGSDKIHHHHHHMSEKNQQSADLMARQYFLHLGAHRTGSSSFQLCLHENRAALANAGYGVAFPARDGIRAGQLALRLPQPRHDAEAETRMAETARQHLTQDIAPAPDQKVLLSEENILGSMSHFQQALFYPASAKRLRALRQAMEGPAAAVLLVVRDYGPFFRSCIRKRMEETIVTDFEGAVSAYLAMDRGWLEVLREVRDILEPAKLIVARHEDRPKRVDLLRELAPDLAQVALMQPSTSLNISATDRALSALQARYATGEKLSRKAWRATLAEWRDDATPMGLTEFTPRELRAFSMRYERDLSDIAKEPGLTLI”, the “soluble on expression in E. coli” value is “not soluble”.

On to “MGSDKIHHHHHHMSEKTLYQKLQNIHKKVPYIQKSQQASQYSYAGSSDVLGTIHGLMDEEKLILIPQITNKNTETSQNRKGSTVIFTELMMTMTWVNSDNPDEKLECQWYAQGIDTAGEKGVGKALTYGEKYFLLKFFNVATDDLDPDAFQENVKAQKAPELINDEQKKTLKELFNSMASVTKTPIEKVSKAYLKKVNSDSIEKLQEDTAIGLIELVTNQLNKQTEKAGK”, for which the “soluble on expression in E. coli” value is given as “not soluble”.

Take “MGSDKIHHHHHHMSEQQCTELKVLDTVPFGQVSGDAQFYALRLEKPRWKSWKPGQFVMIRPQGWALDMLWARPFSICRVSSRDLVLFFQAVGRGTRRLADLKAGDTVVVWGPLGNSFAVEPETPTLMLAGGIGIAPFIGYAHTHPKPWNLWMEFGHRMPLGCYPFESINEKIMADNHQEECPDDLLRFIERLEKRIAEYAEQDGLVLACGPTPFLRTVQRFALQYGARCQLSLETRMACGVGGCLGCVTSTTEKHHLHHTQAGKAQVCNNGPVFWADQVDLDKA”: the “soluble on expression in E. coli” value is on record as “not soluble”.
